Results taken from US20250049960, “Multicomponent systems for site-specific genome modifications” (The Regents of the University of California, published 2025).

Assays:
Settings in all cases: tags: N-terminal FLAG (GT linker), from HEK293T
BoMo R2 RT [1] = biological target: T1, BoMo R2 RT (Bombyx mori); assay: pulldown; co-expressed in HEK293T, FLAG IP, non-cognate
T1 chain: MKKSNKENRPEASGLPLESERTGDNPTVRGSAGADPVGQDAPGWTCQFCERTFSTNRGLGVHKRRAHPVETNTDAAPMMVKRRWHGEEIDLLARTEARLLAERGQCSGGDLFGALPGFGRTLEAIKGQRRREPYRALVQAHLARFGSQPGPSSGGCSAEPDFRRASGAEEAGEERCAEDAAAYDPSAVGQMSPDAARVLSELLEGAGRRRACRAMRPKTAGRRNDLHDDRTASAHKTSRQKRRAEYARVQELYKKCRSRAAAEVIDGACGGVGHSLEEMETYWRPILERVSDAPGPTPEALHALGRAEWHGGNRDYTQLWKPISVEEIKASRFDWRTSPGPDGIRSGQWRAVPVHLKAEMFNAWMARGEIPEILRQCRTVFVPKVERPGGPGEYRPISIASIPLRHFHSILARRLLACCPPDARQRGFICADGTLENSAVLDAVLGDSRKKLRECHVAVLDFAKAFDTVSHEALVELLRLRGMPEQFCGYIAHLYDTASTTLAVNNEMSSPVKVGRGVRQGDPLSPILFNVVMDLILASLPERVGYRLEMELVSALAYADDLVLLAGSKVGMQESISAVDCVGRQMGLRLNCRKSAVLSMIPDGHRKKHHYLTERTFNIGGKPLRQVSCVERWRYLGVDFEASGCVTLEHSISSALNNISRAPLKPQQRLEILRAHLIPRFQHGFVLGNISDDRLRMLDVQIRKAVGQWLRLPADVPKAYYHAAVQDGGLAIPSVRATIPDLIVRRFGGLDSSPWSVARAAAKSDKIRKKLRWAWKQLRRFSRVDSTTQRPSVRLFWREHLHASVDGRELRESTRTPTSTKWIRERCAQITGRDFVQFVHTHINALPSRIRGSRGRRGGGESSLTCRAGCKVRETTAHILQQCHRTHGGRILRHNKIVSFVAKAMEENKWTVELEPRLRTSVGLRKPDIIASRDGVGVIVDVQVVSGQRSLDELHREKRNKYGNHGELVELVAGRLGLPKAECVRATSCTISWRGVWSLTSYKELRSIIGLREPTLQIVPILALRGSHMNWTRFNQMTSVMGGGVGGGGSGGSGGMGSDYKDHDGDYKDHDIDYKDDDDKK
Source text: (§1) 9 populations of HEK293T cells were transfected with different combinations of plasmids comprised of one of the pcDNA3.1 backbone plasmids expressing RT protein ORFs modified from B. mori (SEQ ID NO. 35, D. simulans (SEQ ID NO. 32), and O. latipes (SEQ ID NO. 8), and an additional plasmid expressing the 3′ UTR RNA from B. mori (SEQ ID 163), D. simulans (SEQ ID NO. 164), or O. latipes (SEQ ID NO. 154) R2 elements (see FIG. 11 A). Each RT protein was co-expressed with each 3′ UTR RNA.
(§2) After allowing sufficient time for the RT protein plasmids to be transcribed and translated and to associate with the transcribed 3′ UTR RNAs, cells were lysed and any RT protein+RNA template complexes were purified by FLAG immunopurification (Sigma FLAG antibody resin). RNA present in each input cell lysate and RNA associated with each immunopurified sample was purified. Equivalent aliquots of each input RNA sample and each RT-bound RNA sample were affixed to Hybond N+membrane (Cytiva) in a grid of spots. Membranes containing spots for each type of 3′ UTR RNA were probed together for the presence of the 3′ UTR RNA, as detected by hybridization to complementary oligonucleotide probes that were ³²P 5′-end-radiolabeled using T4 polynucleotide kinase (NEB). […]

OrLa R2 RT = biological target: T2, OrLa R2 RT (Oryzias latipes); assay: pulldown; co-expressed in HEK293T, FLAG IP, cognate; more selective
T2 chain: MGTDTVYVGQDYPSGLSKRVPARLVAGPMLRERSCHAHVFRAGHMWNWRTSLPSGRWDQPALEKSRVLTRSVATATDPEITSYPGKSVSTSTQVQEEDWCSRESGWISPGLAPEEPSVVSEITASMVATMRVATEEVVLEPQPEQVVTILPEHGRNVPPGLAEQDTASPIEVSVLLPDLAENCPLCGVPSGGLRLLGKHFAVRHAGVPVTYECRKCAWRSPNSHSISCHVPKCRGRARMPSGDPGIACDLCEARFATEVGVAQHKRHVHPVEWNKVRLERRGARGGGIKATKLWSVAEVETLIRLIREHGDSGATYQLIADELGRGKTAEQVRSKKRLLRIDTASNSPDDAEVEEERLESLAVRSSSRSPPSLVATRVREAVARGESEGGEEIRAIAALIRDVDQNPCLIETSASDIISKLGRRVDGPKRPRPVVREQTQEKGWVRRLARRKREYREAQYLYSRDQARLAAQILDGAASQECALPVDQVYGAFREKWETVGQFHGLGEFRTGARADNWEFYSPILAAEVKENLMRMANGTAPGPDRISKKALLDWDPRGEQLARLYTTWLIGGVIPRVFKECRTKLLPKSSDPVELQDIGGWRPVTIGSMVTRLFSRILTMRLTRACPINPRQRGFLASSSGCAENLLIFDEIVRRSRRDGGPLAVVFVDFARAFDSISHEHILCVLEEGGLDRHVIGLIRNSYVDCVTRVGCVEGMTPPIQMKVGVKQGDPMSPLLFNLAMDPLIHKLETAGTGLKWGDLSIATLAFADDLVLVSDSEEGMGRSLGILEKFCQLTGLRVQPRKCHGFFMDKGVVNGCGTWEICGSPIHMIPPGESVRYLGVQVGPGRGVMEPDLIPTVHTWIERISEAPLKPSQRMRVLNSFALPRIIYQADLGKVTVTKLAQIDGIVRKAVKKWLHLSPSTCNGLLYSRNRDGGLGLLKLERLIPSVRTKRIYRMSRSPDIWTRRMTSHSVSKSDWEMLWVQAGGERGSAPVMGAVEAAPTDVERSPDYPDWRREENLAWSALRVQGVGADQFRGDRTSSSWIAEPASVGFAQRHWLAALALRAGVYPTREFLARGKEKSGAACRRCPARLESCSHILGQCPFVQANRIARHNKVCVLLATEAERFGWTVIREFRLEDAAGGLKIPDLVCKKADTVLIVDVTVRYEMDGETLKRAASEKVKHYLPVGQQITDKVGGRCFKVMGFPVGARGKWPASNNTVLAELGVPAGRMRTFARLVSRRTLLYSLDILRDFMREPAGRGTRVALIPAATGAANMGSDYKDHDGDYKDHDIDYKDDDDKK
Source text: as §1, §2

BoMo R2 RT [2] = biological target: T1, BoMo R2 RT; assay: pulldown; co-expressed in HEK293T, FLAG IP, cognate
Source text: as §1, §2

B1: O. latipes R2 3'UTR RNA (ssRNA)
RNA: UGAGGGGGACAGCUGGGAGUCUCGGCAUGAUUACAAAUCUUGCGCUGCACUCGGAUGUCGUCCCCGUGACGGACACAUUAAUCCGGAAAGCGAGUGGUGACUCGCCUCAAG
binding result (BoMo R2 RT [1]): binds
binding result (OrLa R2 RT): binds

B2: D. simulans R2 3'UTR RNA (ssRNA)
RNA: UAGCUAAAACGUUUGGUUCAAAACAUUUGCUUGCUGUCUUGGCAUAACAUCAAUAAAGGCAUAAACAUCGCAAAAUAAUGGUUAUAUAUAAAUGGCUAUGAGGAUGGUUUUAGUACGUAGGCGUUGCGGAACUUCGGUUCAGAUAGAGCAAUGAAUCGUGCAUGCUAGGAAAACUGACCACACGCAGUGUUGGCAGCCCUAGUAUCUUUCGAUAGAUUUCCAUACCUCCGCGAUCAAAAAAAAAAAAAAAAAAAAAAA
binding result (BoMo R2 RT [1]): binds

B3: B. mori R2 3'UTR RNA (ssRNA)
RNA: UGAGCCUUGCACAGUAGUCCAGCGGUAAGGGUGUAGAUCAGGCCCGUCUGUUUCUCCCCCGGAGCUCGCUCCCUUGGCUUCCCUUAUAUAUUUUAACAUCAGAAACAGACAUUAAACAUCUACUGAUCCAAUUUCGCCGGCGUACGGCCACGAUCGGGAGGGUGGGAAUCUCGGGGGUCUUCCGAUCCUAAUCCAUGAUGAUUACGACCUGAGUCACUAAAGACGAUGGCAUGAUGAUCCGGCGAUGAAAA
binding result (BoMo R2 RT [2]): binds
